The supplement of paper PMC6755084

B1: F1*; the commonest letter at each place (parent)
chain: GAGACCGCAACTGAAAAGTTGTTATCACTTGTCGTAAGACACTTTGGATGGGTTGAAGTTCTGCACGTAGAAGCAAAAGGC

Variants of: B1
Test: fraction ligated after 30 min (ligated reads / total reads); higher = more ligase activity
Conditions: with F1*sub RNA substrate (template-directed ligation), 42 °C
Summary of the method: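 Oligo-pool templates of ligase ribozyme variants were PCR-amplified, T7-transcribed and gel-purified. Ligated and unligated bands were gel-separated, reverse transcribed with barcoded primers, and MiSeq-sequenced; core bases were filtered at quality ≥20. Fraction ligated per variant was ligated reads over total reads.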
With T29C T44A the fraction ligated was 0.802.
Work on A41G T45G yielded a fraction ligated of 0.119.
Variant A24T A39G has a fraction ligated of 0.793.
T54G showed a fraction ligated of 0.807.
C28A C40G gave a fraction ligated of 0.824.
With G58A the fraction ligated was 0.851.
G38A G50A was tested, and the fraction ligated was 0.391.
In the case of A41G A57C, the fraction ligated is reported as 0.735.
A24T T29A gave a fraction ligated of 0.789.
Variant A41C G46C has a fraction ligated of 0.639.
For G34C C40T, the fraction ligated was 0.803.
With C40G A57C the fraction ligated was 0.788.
T43A G46T showed a fraction ligated of 0.81.
In the case of C28G A48T, the fraction ligated is reported as 0.47.
With T25G G46T the fraction ligated was 0.134.
T45C G50A was tested, and the fraction ligated was 0.0234.
Variant T32A A56T has a fraction ligated of 0.82.
Variant G47C G50C has a fraction ligated of 0.0335.
Variant T23G C42G has a fraction ligated of 0.829.
Work on T30G A36T yielded a fraction ligated of 0.841.
Variant C33A A37G has a fraction ligated of 0.872.
For A37G G50C, the fraction ligated was 0.45.
G34C T49A was tested, and the fraction ligated was 0.776.
For A39G A57T, the fraction ligated was 0.829.
Variant A48G T49C has a fraction ligated of 0.504.
In the case of T29G A48C, the fraction ligated is reported as 0.756.
Variant T30C G31C T32G A39C C40G A41G has a fraction ligated of 0.862.
With A24G G55A the fraction ligated was 0.685.
With G38A G46C the fraction ligated was 0.792.
Work on G38C A41G yielded a fraction ligated of 0.793.
Work on T29A C33A yielded a fraction ligated of 0.852.
For T32A A36C, the fraction ligated was 0.815.
A41C G47T showed a fraction ligated of 0.157.
With C33A A36T the fraction ligated was 0.868.
G34C G55T showed a fraction ligated of 0.809.
For G34C G55A, the fraction ligated was 0.838.
For C40G A41G, the fraction ligated was 0.807.
For A48T, the fraction ligated was 0.768.
Work on C40A C42A yielded a fraction ligated of 0.821.
Work on T35C A41G yielded a fraction ligated of 0.783.
In the case of T23G C28G, the fraction ligated is reported as 0.791.
Work on T25C A41C yielded a fraction ligated of 0.517.
T25C A41T was tested, and the fraction ligated was 0.82.
With T23C A56T the fraction ligated was 0.802.
C28T T43C showed a fraction ligated of 0.781.
Variant T32C G55T has a fraction ligated of 0.75.
With T29G G55C the fraction ligated was 0.584.
For A37T G55A, the fraction ligated was 0.862.
With A41G C42G the fraction ligated was 0.803.
T29A G34C showed a fraction ligated of 0.816.
Variant T32C has a fraction ligated of 0.803.
For T23G A41C, the fraction ligated was 0.727.
T23C T45G gave a fraction ligated of 0.027.
G34C A57C showed a fraction ligated of 0.817.
T23C A57G showed a fraction ligated of 0.851.
T29A A37C showed a fraction ligated of 0.849.
G46A G50C showed a fraction ligated of 0.0754.
G34T A36C was tested, and the fraction ligated was 0.843.
G34A A57T gave a fraction ligated of 0.822.
G34A A57C was tested, and the fraction ligated was 0.791.
In the case of A24T, the fraction ligated is reported as 0.778.
For G34T C40G, the fraction ligated was 0.811.
For A27G G31A, the fraction ligated was 0.776.
For A27T A39C, the fraction ligated was 0.782.
C28T T45A was tested, and the fraction ligated was 0.532.
For G46A A48G, the fraction ligated was 0.609.
Variant A24T T44G has a fraction ligated of 0.196.
Variant T43C A57T has a fraction ligated of 0.79.
In the case of T30C C40T, the fraction ligated is reported as 0.808.
Variant T30C C40A has a fraction ligated of 0.828.
A39G T43G was tested, and the fraction ligated was 0.815.
G34T A48G was tested, and the fraction ligated was 0.77.
Work on G34T A48C yielded a fraction ligated of 0.756.
In the case of C26T C42T, the fraction ligated is reported as 0.837.
C28T A56G was tested, and the fraction ligated was 0.567.
C28T A56C showed a fraction ligated of 0.595.
G31C A37G was tested, and the fraction ligated was 0.817.
Work on G31C A37T yielded a fraction ligated of 0.79.
C28A T32C showed a fraction ligated of 0.756.
A39C C42A gave a fraction ligated of 0.842.
A39C C42G showed a fraction ligated of 0.834.
Variant T30G T43G has a fraction ligated of 0.795.
Variant T45A G47T has a fraction ligated of 0.205.
